Source: patent publication US8840892B2, “Method of administering antibiotic therapy for treating intracellular infectious diseases” (Universidad Nacional Autónoma de México, priority 2003, dated 2014)

Legend:
[1] = mouse, in vivo
PGE formation (COX-2) = test: inhibition of PGE formation by selective COX-2 inhibitors
[2] = test system: Mycobacterium tuberculosis; test: experimental model of pulmonary tuberculosis in BALB/c mice; format: in vivo
TGF-β = settings: recombinant soluble form, in vitro; cited from earlier work

Molecule: COc1ccc2c(c1)c(CC(=O)O)c(C)n2C(=O)c1ccc(Cl)cc1 [indometacine]
- gastric side effect [1]: extensive erosive gastritis

Molecule: O=C(O)c1cccnc1Nc1cccc(C(F)(F)F)c1 [niflumic acid, reference compound]
- inhibition of the formation of PGE (PGE formation (COX-2)): 98%
- bacteria colony forming units (CFU) in lung ([2]; mouse, in vivo): decreased significantly
- decrease of the area affected by pneumonia in relation to the control group ([2]; mouse, in vivo): 25%
- expression of IL-2, TNF-α, IFN-γ and nitric acid synthetase (increase) and interleukin 10 (decrease) ([2]; mouse, in vivo): same pattern

B1: soluble betaglycan: soluble (recombinant) ectodomain of betaglycan, TGF-β type III receptor; natural antagonist of TGF-β (protein, UniProt Q03167 21-787, looked up)
extracellular domain: GPEPGALCELSPVSASHPVQALMESFTVLSGCASRGTTGLPQEVHVLNLRTAGQGPGQLQREVTLHLNPISSVHIHHKSVVFLLNSPHPLVWHLKTERLATGVSRLFLVSEGSVVQFSSANFSLTAETEERNFPHGNEHLLNWARKEYGAVTSFTELKIARNIYIKVGEDQVFPPKCNIGKNFLSLNYLAEYLQPKAAEGCVMSSQPQNEEVHIIELITPNSNPYSAFQVDITIDIRPSQEDLEVVKNLILILKCKKSVNWVIKSFDVKGSLKIIAPNSIGFGKESERSMTMTKSIRDDIPSTQGNLVKWALDNGYSPITSYTMAPVANRFHLRLENNAEEMGDEEVHTIPPELRILLDPGALPALQNPPIRGGEGQNGGLPFPFPDISRRVWNEEGEDGLPRPKDPVIPSIQLFPGLREPEEVQGSVDIALSVKCDNEKMIVAVEKDSFQASGYSGMDVTLLDPTCKAKMNGTHFVLESPLNGCGTRPRWSALDGVVYYNSIVIQVPALGDSSGWPDGYEDLESGDNGFPGDMDEGDASLFTRPEIVVFNCSLQQVRNPSSFQEQPHGNITFNMELYNTDLFLVPSQGVFSVPENGHVYVEVSVTKAEQELGFAIQTCFISPYSNPDRMSHYTIIENICPKDESVKFYSPKRVHFPIPQADMDKKRFSFVFKPVFNTSLLFLQCELTLCTKMEKHPQKLPKCVPPDEACTSLDASIIWAMMQNKKTFTKPLAVIHHEAESKEKGPSMKEPNPISPPIFHGLDTLTV
modifications: extracellular domain
- extent of pneumonia (in words) ([2]; advanced phase of infection): increased
- bacteria colony forming units (CFU) in lung ([2]; after 30 days of treatment, vs untreated control): decreased significantly
- CFU less than control group ([2]; after 60 days of treatment): 50%
- more pneumonia than the control group ([2]; after two months of treatment, increase vs untreated control): 30%
- bacillary load / amount of tuberculosis bacilli in the lung (in words) ([2]; intraperitoneal, advanced phase of the disease): significant decrease
- neutralization of the effects of TGF-β (TGF-β): potent neutralizing agent
